Reference: publication PMC6344880

Target: 40S subunits of uS9/S16-R143G, uS9/S16-R143E and uS9/S16-R144 strains (S. cerevisiae)
Experiment: co-sedimentation + cross-linking; formaldehyde cross-linking, whole cell extracts resolved on 10–30% sucrose gradients, Western blot of the 43/48S PIC (40S) fractions for eIF1, eIF2α and uS7, signals normalised to uS7; also in strains carrying the TIF5-G31R allele (Figure 6A), which reversed the accumulation of eIF2

A fold increase of association against the wild-type strain of 2.5 to 3 fold was found for “eukaryotic initiation factor 1 (eIF1) (from UniProt P32911 1-108) (natural protein)” in this work.
